# Like-named read-outs stand apart in the source and are kept apart here.
# What was measured:
# [1] = target: full-length human ACE2 mutant AAA/K353del over-expressed on hACE2-KO 293FT cells (human) (UniProt Q9BYF1)
# [2] = target: full-length human ACE2 mutant K353del over-expressed on hACE2-KO 293FT cells (human) (UniProt Q9BYF1)
# [3] = target: full-length human ACE2 mutant AKA/K353del over-expressed on hACE2-KO 293FT cells (human) (UniProt Q9BYF1)
# [4] = target: full-length human ACE2 mutant AAA/K353del over-expressed on hACE2-KO 293FT cells (human) (UniProt Q9BYF1); remark: listed apart in the source
# [5] = target: full-length human ACE2 mutant K353del over-expressed on hACE2-KO 293FT cells (human) (UniProt Q9BYF1); remark: listed apart in the source
# [6] = target: full-length human ACE2 mutant AKA/K353del over-expressed on hACE2-KO 293FT cells (human) (UniProt Q9BYF1); remark: listed apart in the source
# [7] = target: full-length human ACE2 mutant AAA/K353del over-expressed on hACE2-KO 293FT cells (human) (UniProt Q9BYF1); remark: listed apart in the source
# [8] = target: full-length human ACE2 mutant AKA/K353del over-expressed on hACE2-KO 293FT cells (human) (UniProt Q9BYF1); remark: listed apart in the source
# [9] = target: full-length human ACE2 mutant AKA/K353del over-expressed on hACE2-KO 293FT cells (human) (UniProt Q9BYF1); remark: listed apart in the source
Substance,% cells stained positive [1] [%],% cells stained positive [2] [%],% cells stained positive [3] [%],% of cells in the PE-positive (RBD-bound) gate [4] [%],% of cells in the PE-positive (RBD-bound) gate [5] [%],% of cells in the PE-positive (RBD-bound) gate [6] [%],% of cells in the PE-positive (RBD-bound) gate (No hACE2) [%],% of cells in the PE-positive (RBD-bound) gate [7] [%],% of cells in the PE-positive (RBD-bound) gate [8] [%],% of cells in the PE-positive (RBD-bound) gate [9] [%]
receptor binding domain (RBD) of B.1.1.7 SARS-CoV-2 spike (residues 319-541) (from UniProt P0DTC2 319-541) (ligand),1.6,1.4,1.6,,,,,,,
receptor binding domain (RBD) of B.1.351 SARS-CoV-2 spike (residues 319-541) (from UniProt P0DTC2 319-541) (ligand),3.5,3.5,4,3.76,5.07,3.48,0.41,,,
receptor binding domain (RBD) of P.1 SARS-CoV-2 spike (residues 319-541) (from UniProt P0DTC2 319-541) (ligand),2.6,2.3,2.9,,,,,2.03,1.82,
receptor binding domain (RBD) of wildtype SARS-CoV-2 spike (residues 319-541) (from UniProt P0DTC2 319-541) (ligand),,1.8,,,,,,,,0.56
